The results in this text go back to patent US20250270295A1 (ALBERT LUDWIGS UNIVERSITAET FREIBURG, published 2025).

Assay [1] concerns the target T1, native vFcγR gp34 of HCMV AD169 (infected cells, virions) (HCMV strain AD169, UniProt P16809 24-234).
T1 construct: also called native HCMV gp34 protein; gp34/RL11
T1 sequence (looked up): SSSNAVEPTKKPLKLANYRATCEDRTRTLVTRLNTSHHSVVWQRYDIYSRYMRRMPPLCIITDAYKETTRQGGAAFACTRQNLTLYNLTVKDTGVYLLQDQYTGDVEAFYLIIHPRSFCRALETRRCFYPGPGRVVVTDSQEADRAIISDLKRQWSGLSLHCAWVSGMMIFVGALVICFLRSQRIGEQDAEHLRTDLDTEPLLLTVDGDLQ
The assay can be described thus: IP from infected cells; Fc-mediated background per the filing.
Procedure: Finally, anti-vFcγR gp68 mAbs were used for immunoprecipitation experiments. MRC5 fibroblasts were infected with HCMV AD169wt strain or a virus mutant lacking vFcγR gp68 (Δgp68) for 4 days with MOI 3. Infected cells were metabolically labeled with ³⁵S for 2 hours at 37° C., washed and lysed using NP40-lysis buffer. Lysates were incubated with indicated mAbs or human IgG Fc-fragment to pulldown vFcγR gp68 specifically or both HCMV-encoded vFcγRs gp34, gp68 using human IgG-Fc-fragment to precipitated Fc-binding proteins. Samples were deglycosylated by EndoH and separated on SDS-page gradient gel.
MRC5 fibroblast were infected with MOI 2. Four days post infection cells were metabolically labelled and following lysates were incubated with indicated anti-gp68 mAbs or human IgG-Fc-fragment for precipitation of vFcγR gp68.

Assay [2] concerns the target T2, soluble gp68 ectodomain, V5-His tagged (sgp68-V5-His) (HCMV strain AD169, UniProt P16739 24-292).
T2 construct: V5 and His tags are in the entry; also called sol gp68; sgp68wt
Put plainly: ELISA. A general note: An ELISA detects its analyte on a solid surface through an enzyme-linked reagent.

Assay [3] concerns the target T3, soluble human ICOSL ectodomain, V5-His tagged (sICOSL-V5His) (human, UniProt O75144 19-256).
T3 construct: extracellular domain; Control protein with the same tags as the vFcγRs
T3 sequence: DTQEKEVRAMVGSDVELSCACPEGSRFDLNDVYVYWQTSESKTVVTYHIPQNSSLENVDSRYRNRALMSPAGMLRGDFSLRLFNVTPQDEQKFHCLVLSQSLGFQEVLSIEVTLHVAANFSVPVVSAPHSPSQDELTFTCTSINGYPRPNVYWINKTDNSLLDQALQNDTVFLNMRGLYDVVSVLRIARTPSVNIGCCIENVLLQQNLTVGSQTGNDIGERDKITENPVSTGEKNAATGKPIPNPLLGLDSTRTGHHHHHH
Put plainly: western blot. In general terms: A western blot detects proteins with antibodies after separation by electrophoresis.

Another assay has as its target T4, gp68_ECD_1 (1-201 aa) (HCMV strain AD169, UniProt P16739 24-201).
T4 construct: signal peptide 1-23 left out
The assay can be described thus: ELISA, coated supernatant.

Another assay has as its target gp68_ECD_4b (1-152) (HCMV strain AD169, UniProt P16739 24-152). The assay can be described thus: ELISA, coated supernatant.
For another assay, the target named is T5, gp68_ECD_wt (HCMV strain AD169, UniProt P16739 24-292).
T5 construct: Called 'same antigen as used for immunization'; used as HEK293T supernatant; also called gp68wt extracellular domain
The assay can be described thus: ELISA, coated supernatant.

Assay [4] addresses T6, gp68_ECD_7 (gp68 ΔO-glyc, 1-293 lacking 27-67aa) (HCMV strain AD169, UniProt P16739 65-292).
T6 sequence: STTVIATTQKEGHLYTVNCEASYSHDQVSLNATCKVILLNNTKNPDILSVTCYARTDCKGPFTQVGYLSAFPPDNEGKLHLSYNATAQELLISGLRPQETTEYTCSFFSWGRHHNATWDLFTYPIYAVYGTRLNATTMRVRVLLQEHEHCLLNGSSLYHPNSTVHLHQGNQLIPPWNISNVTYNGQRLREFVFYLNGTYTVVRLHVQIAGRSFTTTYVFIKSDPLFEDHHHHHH
Put plainly: ELISA, coated supernatant.

Another assay has as its target T7, gp68_ECD_4a* (1-144aa) (HCMV strain AD169, UniProt P16739 24-144).
T7 construct: Shortened by a stop codon that arose in cloning, so a C-terminal tag is doubtful
T7 sequence: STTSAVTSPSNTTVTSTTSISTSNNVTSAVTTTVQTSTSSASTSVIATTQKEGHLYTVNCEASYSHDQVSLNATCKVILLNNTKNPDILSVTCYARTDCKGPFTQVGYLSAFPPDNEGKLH
The assay can be described thus: ELISA, coated supernatant.

Assay [5] addresses T8, gp68 on stably transduced HeLa cells (HCMV strain AD169, UniProt P16739 24-345).
T8 construct: whole, on cells; also called plasma membrane exposed gp68
T8 sequence: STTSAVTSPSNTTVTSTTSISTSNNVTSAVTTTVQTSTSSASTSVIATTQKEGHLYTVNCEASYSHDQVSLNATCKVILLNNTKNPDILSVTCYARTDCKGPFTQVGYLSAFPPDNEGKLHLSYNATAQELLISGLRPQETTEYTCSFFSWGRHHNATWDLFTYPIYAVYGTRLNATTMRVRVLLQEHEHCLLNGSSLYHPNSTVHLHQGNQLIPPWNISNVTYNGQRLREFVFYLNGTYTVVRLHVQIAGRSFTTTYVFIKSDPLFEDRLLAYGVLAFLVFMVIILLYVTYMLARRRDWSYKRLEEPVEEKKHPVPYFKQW
The assay can be described thus: flow cytometry, HeLa, 1 µg/ml. (In general: Flow cytometry measures light scatter and fluorescence of single cells or particles in a stream.)

B1: gp68.05 (antibody, V domains shown)
VH: QVKLEESGAELMKPGASVKISCTATGYTFSGYWIEWVKQRPGHGLEWIGEILPGSGGTNYNEKFKGKATFTADTSSNTAYMQLSSLTSEDSAVYYCARGIHYFGYYYFDYWGQGTTLTVSSAKTTPPSVY
VL: DIVLTQTPSSLSASLGDRVTISCRASQDISNYLNWYQLKPDGTVKLLIYYTSRLHSGVPSRFSGSGSGTDYSLTISNLEQEDIATYFCQQGNTLPPTFGGGTKLEIKRADAAPTVS
notes: mouse IgG1 hybridoma mAb; leader in entries; also called anti gp68 clone 68.05
Consider B1, for which the binding result in assay [1] is on record as “binds”; in assay [2], “binds”; in assay [3] it was “no binding”; with gp68_ECD_1 (1-201 aa) it was “no binding (tested: 1 µg/ml)”; with gp68_ECD_4b (1-152), “no binding (tested: 1 µg/ml)”; with gp68_ECD_wt, “binds”. Also, the values for the binding result (in assay [4]; with gp68_ECD_4a* (1-144aa)) were “binds” and “no binding (tested: 1 µg/ml)”, respectively.

B2: gp68.06 (antibody, V domains shown)
VH: QVKLEQSGAELMKPGASVKISCTATGYTFSGYWIEWVKQRPGHGLEWIGEILPGSGGTNYNEKFKGKATFTADTSSNTAYMQLSSLTSEDSAVYYCARGIHYFGYYYFDYWGQGTTLTVSSAKTTPPSVY
VL: DIVLTQSPSSLSASLGDRVTISCRASQDISNYLNWYQLKPDGTVKLLIYYTSRLHSGVPSRFSGSGSGTDYSLTINNLEQEDIATYFCQQGNTLPPTFGGGTKLEIKRADAAPTVS
notes: mouse IgG1 hybridoma mAb; leader in entries; also called anti gp68 clone 68.06
On to B2, for which the binding result is recorded as “binds” in assay [1]; “binds” in assay [2]; “no binding” in assay [3]; “no binding (tested: 1 µg/ml)” in the assay with gp68_ECD_1 (1-201 aa); “no binding (tested: 1 µg/ml)” with gp68_ECD_4b (1-152); “binds” with gp68_ECD_wt. Moreover, the results for the binding result (in assay [4]; with gp68_ECD_4a* (1-144aa)) were “binds” and “no binding (tested: 1 µg/ml)”, respectively.

B3: gp68.01 (antibody, V domains shown)
VH: EVKLLESGPELVKPGSSVKISCKASGYSFADHIILWVKQSHGKSLEWIGNINPYSGNTIYNLNFKGKATLTVDKSSSTAYMQLNSLTSEDSAVYYCARIEGYYSMDYWGQGTSVTVSS
VL: DIVMTQTPLSLPVSLGDQASISCRSSQSIVHSNGNTYLEWYLQKPGQSPKVLIYKVSKRFSGVPDRFSGSGSGTDFTLKISRVEAEDMGVYYCFQGSHVPLTFGAGTKLELK
notes: mouse IgG1 hybridoma mAb; leader in entries
Turning to B3, the binding result is reported as “binds” in assay [2]; “no binding” in [3]; “binds” in [5]; “binds” with gp68_ECD_1 (1-201 aa); “binds” in the assay with gp68_ECD_wt; “binds” in assay [4].

B4: gp68.02 (antibody, V domains shown)
VH: EVKLLQSGPELVKPGSSVKISCKASGYSFADHIILWVKQSHGKSLEWIGNINPYSGNTIYNLNFKGKATLTVDKSSSTAYMQLNSLTSEDSAVYYCARIEGYYSMDYWGQGTSVTVSS
VL: DIVLTQTPLSLPVSLGDQASISCRSSQSIVHSNGNTYLEWYLQKPGQSPKVLIYKVSKRFSGVPDRFSGSGSGTDFTLKISRVEAEDMGVYYCFQGSHVPLTFGAGTKLELK
notes: as for B3
For the molecule B4, the binding result is “binds” in assay [2]; “no binding” in assay [3]; “binds” in assay [5]; “binds” in the assay with gp68_ECD_1 (1-201 aa); “binds” with gp68_ECD_wt; “binds” in assay [4].
